{"source": "patent US20030049246A1", "about": "(published 2003)", "biological_target": "T1, Gli3C′ΔXhoI (Myc-tagged C-terminal deleted XhoI Gli 3 truncate) (human, UniProt P10071 1-547)", "T1 construct": "also called Gli3C'XhoI", "T1 sequence": "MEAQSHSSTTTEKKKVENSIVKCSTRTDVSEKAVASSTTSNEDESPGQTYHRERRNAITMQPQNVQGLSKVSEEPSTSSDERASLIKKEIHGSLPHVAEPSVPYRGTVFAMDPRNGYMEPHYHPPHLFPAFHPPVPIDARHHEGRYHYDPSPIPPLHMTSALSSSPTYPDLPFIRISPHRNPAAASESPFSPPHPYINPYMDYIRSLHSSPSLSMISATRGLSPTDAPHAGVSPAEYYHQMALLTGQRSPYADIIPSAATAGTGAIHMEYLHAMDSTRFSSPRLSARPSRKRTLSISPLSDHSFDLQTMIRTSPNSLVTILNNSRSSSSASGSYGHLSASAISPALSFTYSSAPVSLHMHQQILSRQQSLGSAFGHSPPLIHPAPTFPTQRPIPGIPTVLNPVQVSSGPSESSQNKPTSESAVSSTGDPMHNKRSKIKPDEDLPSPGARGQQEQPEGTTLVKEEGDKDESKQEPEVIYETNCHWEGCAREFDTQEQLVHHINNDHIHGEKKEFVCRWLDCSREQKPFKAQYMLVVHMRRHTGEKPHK", "experiment": "co-immunoprecipitation (anti-Flag IP, anti-Myc blot), transfected cells", "description": "Immunoprecipitation and immunoblotting: The assay was performed as previously described ( Liu et al, 1997, Genes Dev. 11:3157-3167). RIB/L17 or COS1 cells were cotransfected with Myc-tagged full-length or deletion derivatives of Gli3 or Gli1 along with a Flag-tagged Smad construct by the DEAE-dextran method. BMP or TGFP stimulation was by cotransfection of an activated BMP or TGFβ receptor and treatment with BMP (2 nM) or TGFβ (500 pM) for 1 hour. Cells were lysed in TNE buffer (10 mM Tris (pH7.8), 150 mM NaCl, 1 mM EDTA, 1% NP40) in the presence of protease inhibitors. Immunoprecipitation was performed by incubation with the M2 anti-Flag antibody (Eastman Kodak) for 1 hour. Immunoprecipitates were separated in an 8% SDS-PAGE and transferred to a PVDF membrane. Inmmunoblotting was carried out by using the 9E10 anti-Myc antibody (ascites), followed by incubation with HRP-conjugated goat anti-mouse antibodies and detected by chemiluminescence (Amersham)."}
{"binder": "Flag-Smad1 (other, UniProt Q15797 1-465, looked up, not shown: Flag tag) MNVTSLFSFTSPAVKRLLGWKQGDEEEKWAEKAVDALVKKLKKKKGAMEELEKALSCPGQPSNCVTIPRSLDGRLQVSHRKGLPHVIYCRVWRWPDLQSHHELKPLECCEFPFGSKQKEVCINPYHYKRVESPVLPPVLVPRHSEYNPQHSLLAQFRNLGQNEPHMPLNATFPDSFQQPNSHPFPHSPNSSYPNSPGSSSSTYPHSPTSSDPGSPFQMPADTPPPAYLPPEDPMTQDGSQPMDTNMMAPPLPSEINRGDVQAVAYEEPKHWCSIVYYELNNRVGEAFHASSTSVLVDGFTDPSNNKNRFCLGLLSNVNRNSTIENTRRHIGKGVHLYYVGGEVYAECLSDSSIFVQSRNCNYHHGFHPTTVCKIPSGCSLKIFNNQEFAQLLAQSVNHGFETVYELTKMCTIRMSFVKGWGAEYHRQDVTSTPCWIEIHLHGPLQWLDKVLTQMGSPHNPISSVS", "values": [{"measurement": "binding result", "value": "no binding"}]}
